Target: antigen CD3 (Biacore analysis) (Homo sapiens (Human)) (UniProt P07766)
Assay: SPR (Biacore)

B1: huOKT3 IgG1-aGlyco (antibody, V domains shown)
VH: QVQLVQSGGGVVQPGRSLRLSCKASGYTFTRYTMHWVRQAPGKGLEWIGYINPSRGYTNYNQKFKDRFTISRDNSKNTAFLQMDSLRPEDTGVYFCARYYDDHYCLDYWGQGTPVTVSS
VL: DIQMTQSPSSLSASVGDRVTITCSASSSVSYMNWYQQTPGKAPKRWIYDTSKLASGVPSRFSGSGSGTDYTFTISSLQPEDIATYYCQQWSSNPFTFGQGTKLQITR
- Kd: 64.6 nM
- koff: 0.109 s⁻¹
- kon: 1.68e+06 M⁻¹ s⁻¹

Reference: patent US20190359732A1
